In CN117843776A:

Target: IL-17RA and IL-17RC co-expressed on 293F-IL-17RA-IL-17Rc-ACT1-NFκB-Luc reporter cells (Homo sapiens (Human)) (UniProt Q96F46)
Assay: FACS, IL-17A recombinant protein on 293F-IL-17RA-IL-17Rc-ACT1-NFκB-Luc cells

UniProt Q96F46, sequence (Q96F46 33-866 limits assumed, chain 1 of 2): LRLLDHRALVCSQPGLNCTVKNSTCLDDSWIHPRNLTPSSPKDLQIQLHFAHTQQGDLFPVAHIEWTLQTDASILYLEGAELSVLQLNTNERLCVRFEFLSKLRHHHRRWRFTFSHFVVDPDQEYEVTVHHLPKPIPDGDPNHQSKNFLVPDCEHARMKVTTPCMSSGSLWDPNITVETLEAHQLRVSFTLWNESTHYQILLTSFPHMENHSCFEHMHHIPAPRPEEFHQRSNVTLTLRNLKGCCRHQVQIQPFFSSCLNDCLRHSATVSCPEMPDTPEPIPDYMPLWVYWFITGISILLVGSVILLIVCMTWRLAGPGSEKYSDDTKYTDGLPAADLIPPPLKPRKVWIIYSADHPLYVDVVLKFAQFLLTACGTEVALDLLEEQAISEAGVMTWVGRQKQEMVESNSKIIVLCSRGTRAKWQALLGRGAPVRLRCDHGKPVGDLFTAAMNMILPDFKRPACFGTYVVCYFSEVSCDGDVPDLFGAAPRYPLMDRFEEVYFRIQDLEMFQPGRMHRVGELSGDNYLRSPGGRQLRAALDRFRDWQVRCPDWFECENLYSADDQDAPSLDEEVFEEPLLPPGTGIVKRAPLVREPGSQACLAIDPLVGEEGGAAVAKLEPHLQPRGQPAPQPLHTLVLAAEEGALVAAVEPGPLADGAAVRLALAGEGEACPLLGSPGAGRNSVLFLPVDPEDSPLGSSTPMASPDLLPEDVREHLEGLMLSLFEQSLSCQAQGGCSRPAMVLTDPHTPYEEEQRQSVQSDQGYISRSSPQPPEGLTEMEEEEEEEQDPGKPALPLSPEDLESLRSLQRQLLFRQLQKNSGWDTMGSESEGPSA
UniProt Q96F46, sequence (chain, as listed by the source limits assumed, chain 2 of 2): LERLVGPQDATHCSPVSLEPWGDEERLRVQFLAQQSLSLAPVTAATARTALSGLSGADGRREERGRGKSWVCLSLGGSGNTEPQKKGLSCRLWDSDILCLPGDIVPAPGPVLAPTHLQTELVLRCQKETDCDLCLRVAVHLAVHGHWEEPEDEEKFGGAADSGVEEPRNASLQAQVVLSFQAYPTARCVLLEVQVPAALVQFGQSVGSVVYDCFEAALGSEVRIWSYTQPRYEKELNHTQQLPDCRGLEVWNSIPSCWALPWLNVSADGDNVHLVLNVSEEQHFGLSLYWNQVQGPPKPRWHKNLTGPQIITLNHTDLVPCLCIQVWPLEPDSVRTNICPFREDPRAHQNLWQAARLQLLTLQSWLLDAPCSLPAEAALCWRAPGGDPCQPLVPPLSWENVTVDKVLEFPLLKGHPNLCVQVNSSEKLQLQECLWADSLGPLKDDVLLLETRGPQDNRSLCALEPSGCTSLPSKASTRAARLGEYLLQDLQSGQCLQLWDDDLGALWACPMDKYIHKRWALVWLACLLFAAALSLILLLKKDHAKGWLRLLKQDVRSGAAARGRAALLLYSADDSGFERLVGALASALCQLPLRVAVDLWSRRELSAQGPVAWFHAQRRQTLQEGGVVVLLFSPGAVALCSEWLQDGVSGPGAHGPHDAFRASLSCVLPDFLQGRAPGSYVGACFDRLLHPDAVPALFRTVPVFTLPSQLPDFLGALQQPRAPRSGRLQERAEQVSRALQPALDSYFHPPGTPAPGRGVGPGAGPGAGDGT

阳性率: > 90 %
Substance: Human IL-17A重组蛋白 (C-terminal 6xHis) (from UniProt Q16552 24-155) (ligand)
